Here are results for one molecule from patent US20140314744A1 (NEOTOPE BIOSCIENCES, published 2014).

The target in the experiment is T1, Recombinant human IgG1 Fc (R&D systems) (human, UniProt P01857-1 100-330 = IgG part).
T1 construct: domain: Fc; Negative control surface in the Biacore experiment; also called hIgG1-Fc
The experiment can be described thus: SPR (Biacore T200). A general note: SPR reads the build-up and loss of mass on a sensor chip optically.

B1: Recombinant human laminin-α4 (R&D systems) (ligand, UniProt Q16363-2 826-1816, looked up)
chain: QVSMMFDGQSAVEVHSRTSMDDLKAFTSLSLYMKPPVKRPELTETADQFILYLGSKNAKKEYMGLAIKNDNLVYVYNLGTKDVEIPLDSKPVSSWPAYFSIVKIERVGKHGKVFLTVPSLSSTAEEKFIKKGEFSGDDSLLDLDPEDTVFYVGGVPSNFKLPTSLNLPGFVGCLELATLNNDVISLYNFKHIYNMDPSTSVPCARDKLAFTQSRAASYFFDGSGYAVVRDITRRGKFGQVTRFDIEVRTPADNGLILLMVNGSMFFRLEMRNGYLHVFYDFGFSGGPVHLEDTLKKAQINDAKYHEISIIYHNDKKMILVVDRRHVKSMDNEKMKIPFTDIYIGGAPPEILQSRALRAHLPLDINFRGCMKGFQFQKKDFNLLEQTETLGVGYGCPEDSLISRRAYFNGQSFIASIQKISFFDGFEGGFNFRTLQPNGLLFYYASGSDVFSISLDNGTVIMDVKGIKVQSVDKQYNDGLSHFVISSVSPTRYELIVDKSRVGSKNPTKGKIEQTQASEKKFYFGGSPISAQYANFTGCISNAYFTRVDRDVEVEDFQRYTEKVHTSLYECPIESSPLFLLHKKGKNLSKPKASQNKKGGKSKDAPSWDPVALKLPERNTPRNSHCHLSNSPRAIEHAYQYGGTANSRQEFEHLKGDFGAKSQFSIRLRTRSSHGMIFYVSDQEENDFMTLFLAHGRLVYMFNVGHKKLKIRSQEKYNDGLWHDVIFIRERSSGRLVIDGLRVLEESLPPTEATWKIKGPIYLGGVAPGKAVKNVQINSIYSFSGCLSNLQLNGASITSASQTFSVTPCFEGPMETGTYFSTEGGYVVLDESFNIGLKFEIAFEVRPRSSSGTLVHGHSVNGEYLNVHMKNGQVIVKVNNGIRDFSTSVTPKQSLCDGRWHRITVIRDSNVVQLDVDSEVNHVVGPLNPKPIDHREPVFVGGVPESLLTPRLAPSKPFTGCIRHFVIDGHPVSFSKAALVSGAVSINSCPAA
notes: also called laminin 4A chain; laminin A4 (α4) chain
For the molecule B1, the binding result is “no binding (tested: 5-175 nM)”.
